Square brackets hold non-standard residues; d marks the D form. Ends that are not written are not given here. pY = N[C@@H](Cc1ccc(OP(=O)(O)O)cc1)C(=O)O
Experiments:
Test in all cases: fluorescence polarisation
[1] = molecular target: T1, tandem SH2 domain of C. glabrata Spt6 (Spt6-tSH2) (C. glabrata, UniProt Q6FLB1 1250-1444)
T1 sequence (looked up): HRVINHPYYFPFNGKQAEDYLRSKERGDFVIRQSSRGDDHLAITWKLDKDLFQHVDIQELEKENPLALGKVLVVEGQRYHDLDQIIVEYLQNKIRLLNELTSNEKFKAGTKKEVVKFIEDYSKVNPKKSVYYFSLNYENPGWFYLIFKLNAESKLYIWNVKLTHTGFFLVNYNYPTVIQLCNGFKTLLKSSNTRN

Spt6-tSH2 K1354E = molecular target: T2, Spt6-tSH2 K1354E (C. glabrata, UniProt Q6FLB1 1250-1444, K1354E)
T2 sequence (looked up): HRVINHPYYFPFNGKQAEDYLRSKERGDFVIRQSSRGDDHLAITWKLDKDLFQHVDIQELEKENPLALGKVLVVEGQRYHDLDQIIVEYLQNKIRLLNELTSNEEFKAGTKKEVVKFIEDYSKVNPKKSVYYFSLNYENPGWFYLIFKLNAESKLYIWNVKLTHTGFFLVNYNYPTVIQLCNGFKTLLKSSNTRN

Spt6-tSH2 K1360A = molecular target: T3, Spt6-tSH2 K1360A (C. glabrata, UniProt Q6FLB1 1250-1444, K1360A)
T3 sequence (looked up): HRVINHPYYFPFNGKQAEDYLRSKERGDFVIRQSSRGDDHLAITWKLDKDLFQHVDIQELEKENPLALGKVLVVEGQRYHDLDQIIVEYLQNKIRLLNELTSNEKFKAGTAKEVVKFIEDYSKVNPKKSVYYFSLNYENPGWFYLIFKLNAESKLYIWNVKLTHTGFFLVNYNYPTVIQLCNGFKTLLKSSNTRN

Spt6-tSH2 K1434A = molecular target: T4, Spt6-tSH2 K1434A (C. glabrata, UniProt Q6FLB1 1250-1444, K1434A)
T4 sequence (looked up): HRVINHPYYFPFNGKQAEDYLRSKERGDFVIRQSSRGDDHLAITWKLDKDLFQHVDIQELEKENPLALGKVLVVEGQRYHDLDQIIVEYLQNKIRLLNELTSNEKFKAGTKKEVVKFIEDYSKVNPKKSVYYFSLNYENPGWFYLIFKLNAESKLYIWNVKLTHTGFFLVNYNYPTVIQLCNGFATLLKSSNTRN

Spt6-tSH2 R1281A/R1285A = molecular target: T5, Spt6-tSH2 R1281A/R1285A (C. glabrata, UniProt Q6FLB1 1250-1444, R1281A | R1285A)
T5 sequence (looked up): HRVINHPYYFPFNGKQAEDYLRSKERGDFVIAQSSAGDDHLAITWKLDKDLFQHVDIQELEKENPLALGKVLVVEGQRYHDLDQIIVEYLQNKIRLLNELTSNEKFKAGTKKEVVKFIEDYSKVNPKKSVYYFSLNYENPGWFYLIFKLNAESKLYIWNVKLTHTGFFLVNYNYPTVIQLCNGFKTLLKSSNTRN

[2] = molecular target: T6, N-terminal SH2 domain of C. glabrata Spt6 (Spt6-N-SH2) (C. glabrata, UniProt Q6FLB1 1250-1354)
T6 sequence (looked up): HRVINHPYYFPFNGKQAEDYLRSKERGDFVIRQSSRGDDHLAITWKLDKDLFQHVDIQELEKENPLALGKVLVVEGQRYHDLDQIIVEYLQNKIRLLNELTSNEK

Spt6-tSH2 R1281A = molecular target: T7, Spt6-tSH2 R1281A (C. glabrata, UniProt Q6FLB1 1250-1444, R1281A)
T7 sequence (looked up): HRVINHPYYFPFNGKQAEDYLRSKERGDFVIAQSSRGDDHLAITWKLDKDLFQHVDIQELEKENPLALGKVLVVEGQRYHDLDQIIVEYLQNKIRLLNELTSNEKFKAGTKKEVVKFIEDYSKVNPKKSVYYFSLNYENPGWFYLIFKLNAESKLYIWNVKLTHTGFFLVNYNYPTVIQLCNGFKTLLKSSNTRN

Spt6-tSH2 S1283A = molecular target: T8, Spt6-tSH2 S1283A (C. glabrata, UniProt Q6FLB1 1250-1444, S1283A)
T8 sequence (looked up): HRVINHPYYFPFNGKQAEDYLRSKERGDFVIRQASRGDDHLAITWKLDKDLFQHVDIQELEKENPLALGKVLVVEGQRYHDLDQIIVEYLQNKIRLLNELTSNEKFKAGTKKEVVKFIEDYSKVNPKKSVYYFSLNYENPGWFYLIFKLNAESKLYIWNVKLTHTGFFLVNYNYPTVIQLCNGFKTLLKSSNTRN

Spt6-tSH2 S1284A = molecular target: T9, Spt6-tSH2 S1284A (C. glabrata, UniProt Q6FLB1 1250-1444, S1284A)
T9 sequence (looked up): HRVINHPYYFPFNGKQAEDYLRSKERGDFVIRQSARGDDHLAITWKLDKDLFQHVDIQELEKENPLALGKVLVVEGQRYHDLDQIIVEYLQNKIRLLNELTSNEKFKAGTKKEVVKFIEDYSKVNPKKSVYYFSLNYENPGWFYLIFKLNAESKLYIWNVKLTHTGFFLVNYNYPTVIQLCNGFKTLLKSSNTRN

## {5,6‑FAM}-PS[pY]SPTSPS[pY]SPTSPS [(pY1-CTD)2, FAM-labelled tyrosine-phosphorylated CTD diheptad]
[1]
  Kd: 5.1 µM
Spt6-tSH2 K1354E
  Kd: 16.3 µM
Spt6-tSH2 K1360A
  Kd: 12.4 µM
Spt6-tSH2 K1434A
  Kd: 24 µM
Spt6-tSH2 R1281A/R1285A
  Kd: 11.6 µM
[2]
  Kd: 313 µM
Spt6-tSH2 R1281A
  Kd: 17.6 µM
Spt6-tSH2 S1283A
  Kd: 5.4 µM
Spt6-tSH2 S1284A
  Kd: 8.2 µM

Source: PMC7327521 (Journal of Molecular Biology, 2020)
